Legend:
[1] = target: T1, human RON on 3T3-hRON cells (human, UniProt Q04912-1 25-1400); assay: radioligand binding; competition of 125I-MSP with unlabeled MSP on 3T3-hRON cells, 4 h on ice; conditions: one partner purified
T1 construct: human RON (Recepteur d'Origine Nantais, MST1R) expressed on the surface of 3T3-hRON cells; In the functional rows this molecule also stands for human RON on A2780-hRON, BxPC3, HCT15 and HPC5 cells; also called Recepteur d'Origine Nantais; MST1R; source: 3T3 cells stably transfected with human RON (3T3-hRON), on cells

[2] = target: T1, human RON on 3T3-hRON cells; assay: radioligand binding; competition of 125I-MSP with unlabeled MSP (from 5 µM) on 150,000 3T3-hRON cells, 2 h at room temperature; DMEM, 1% BSA, 325 nM human IgG, 50 mM HEPES pH 7.2, 0.1% sodium azide; Scatchard analysis; conditions: one partner purified
[3] = target: T2, RON-Fc (human RON Sema, PSI and IPT1 domains, E25-M682, Fc fusion with human IgG1) (human, UniProt Q04912-1 25-682); assay: ELISA; RON-Fc (1 µg/ml) captured on plate-coated rabbit anti-human IgG Fc; MSP 1000 nM-0.2 pM, 1 h, room temperature; 50 mM HEPES pH 7.2, 150 mM NaCl, 5 mM CaCl2, 1% BSA, 0.1% Tween-20; bound MSP detected with anti-His-HRP; 4-parameter fit; conditions: both partners purified
T2 construct: human RON (Recepteur d'Origine Nantais, MST1R), Sema, PSI and IPT1 domains, E25-M682; also called RON-Fc fusion protein; source: CHO cells; purified (MabSelect Sure, SEC)
T2 sequence (looked up): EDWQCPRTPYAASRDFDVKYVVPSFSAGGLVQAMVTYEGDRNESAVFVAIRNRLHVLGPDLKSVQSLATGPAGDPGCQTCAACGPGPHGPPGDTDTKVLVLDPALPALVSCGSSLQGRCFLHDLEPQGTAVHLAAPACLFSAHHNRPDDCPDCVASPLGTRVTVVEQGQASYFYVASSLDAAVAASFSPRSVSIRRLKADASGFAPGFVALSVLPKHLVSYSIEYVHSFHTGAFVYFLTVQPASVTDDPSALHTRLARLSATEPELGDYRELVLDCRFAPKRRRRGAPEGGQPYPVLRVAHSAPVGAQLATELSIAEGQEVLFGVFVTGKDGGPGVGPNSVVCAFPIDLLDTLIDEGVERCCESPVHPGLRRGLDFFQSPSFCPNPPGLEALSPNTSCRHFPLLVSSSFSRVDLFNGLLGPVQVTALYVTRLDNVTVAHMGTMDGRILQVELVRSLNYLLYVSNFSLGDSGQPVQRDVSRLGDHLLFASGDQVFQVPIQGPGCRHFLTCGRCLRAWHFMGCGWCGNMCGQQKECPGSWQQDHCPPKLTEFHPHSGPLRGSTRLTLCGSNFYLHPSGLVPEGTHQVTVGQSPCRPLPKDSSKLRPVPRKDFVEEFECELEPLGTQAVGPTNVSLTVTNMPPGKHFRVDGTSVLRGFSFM

[4] = target: T3, RON Sema/PSI (human RON residues E25-P568) (human, UniProt Q04912-1 25-568); assay: SPR; RON Sema/PSI amine-coupled to a CM5 chip, Biacore 3000; MSP, MSP β or scMSP injected 500-3.9 nM in HBS-P (10 mM HEPES pH 7.5, 150 mM NaCl, 0.005% P20), 25°C, 30 µl/min; global 1:1 Langmuir fit, KD = koff/kon; conditions: both partners purified
T3 construct: human RON (Recepteur d'Origine Nantais, MST1R), Sema and PSI domains, E25-P568; Expressed with an N-terminal gp67 secretion signal; source: Trichoplusia ni insect cells, baculovirus; purified from the media (Ni-NTA, SEC)
T3 sequence (looked up): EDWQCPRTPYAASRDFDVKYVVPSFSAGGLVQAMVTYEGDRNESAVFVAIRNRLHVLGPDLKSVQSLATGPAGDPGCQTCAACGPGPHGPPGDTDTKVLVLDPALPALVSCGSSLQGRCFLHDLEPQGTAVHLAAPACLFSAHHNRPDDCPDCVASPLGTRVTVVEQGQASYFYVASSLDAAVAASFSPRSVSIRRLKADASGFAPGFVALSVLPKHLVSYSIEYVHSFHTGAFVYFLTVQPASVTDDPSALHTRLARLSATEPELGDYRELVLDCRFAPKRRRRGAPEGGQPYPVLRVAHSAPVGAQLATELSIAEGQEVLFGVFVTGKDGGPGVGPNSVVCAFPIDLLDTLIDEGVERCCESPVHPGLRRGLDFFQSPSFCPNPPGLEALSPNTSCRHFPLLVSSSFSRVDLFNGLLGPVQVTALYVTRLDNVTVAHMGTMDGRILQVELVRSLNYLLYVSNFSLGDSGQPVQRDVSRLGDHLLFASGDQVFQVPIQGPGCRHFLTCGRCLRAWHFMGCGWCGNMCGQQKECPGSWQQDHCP

[5] = target: T2, RON-Fc (human RON Sema, PSI and IPT1 …); assay: BLI; RON-Fc (10 µg/ml) loaded on anti-human IgG Fc biosensors, Octet RED384; MSP, MSP β or scMSP 75-4.7 nM, 400 s association, 400 s dissociation, 30°C; global 1:1 fit, KD = koff/kon; conditions: both partners purified
[6] = target: T2, RON-Fc (human RON Sema, PSI and IPT1 …); assay: SPR; RON-Fc captured (50-100 RU) on immobilised anti-human Fc surfaces, CM5 chip, Biacore 3000; MSP, MSP β or scMSP injected 500-3.9 nM in HBS-P (10 mM HEPES pH 7.5, 150 mM NaCl, 0.005% P20), 25°C, 30 µl/min; global 1:1 Langmuir fit, KD = koff/kon; conditions: both partners purified

B1: MSP 689R (active two-chain macrophage stimulating protein; Q19-G711; C672A) (ligand, human)
chain 1: QRSPLNDFQVLRGTELQHLLHAVVPGPWQEDVADAEECAGRCGPLMDCRAFHYNVSSHGCQLLPWTQHSPHTRLRRSGRCDLFQKKDYVRTCIMNNGVGYRGTMATTVGGLPCQAWSHKFPNDHKYTPTLRNGLEENFCRNPDGDPGGPWCYTTDPAVRFQSCGIKSCREAACVWCNGEEYRGAVDRTESGRECQRWDLQHPHQHPFEPGKFLDQGLDDNYCRNPDGSERPWCYTTDPQIEREFCDLPRCGSEAQPRQEATTVSCFRGKGEGYRGTANTTTAGVPCQRWDAQIPHQHRFTPEKYACKDLRENFCRNPDGSEAPWCFTLRPGMRAAFCYQIRRCTDDVRPQDCYHGAGEQYRGTVSKTRKGVQCQRWSAETPHKPQFTFTSEPHAQLEENFCRNPDGDSHGPWCYTMDPRTPFDYCALRRCADDQPPSILDPPDQVQFEKCGKRVDRLDQRRSKLR
chain 2: VVGGHPGNSPWTVSLRNRQGQHFCGGSLVKEQWILTARQCFSSCHMPLTGYEVWLGTLFQNPQHGEPSLQRVPVAKMVCGPSGSQLVLLKLERSVTLNQRVALICLPPEWYVVPPGTKCEIAGWGETKGTGNDTVLNVALLNVISNQECNIKHRGRVRESEMCTEGLLAPVGACEGDYGGPLACFTHNAWVLEGIIIPNRVCARSRWPAVFTRVSVFVDWIHKVMRLG
notes: MSP alpha-chain of human macrophage stimulating protein: from Q19 of the pro-MSP construct to R483 (cleavage between R483 and V484); disulfide-linked to the beta-chain; Made as single-chain pro-MSP (Q19-G711; C672A; C-terminal 6-His) and cleaved by sHepsin; For the radioligand assay part of the protein was iodinated with 125I (Iodogen); also called HGFL; MST1; source: CHO cells, transiently …
B1 gave a Kd [1] of 23 nM, a Kd [2] of 12.6 nM and an EC50 [3] of 0.1 nM.

B2: MSP 689C (active two-chain macrophage stimulating protein; Q19-G711; C672A; 689C) (ligand, human)
chain 1: QRSPLNDFQVLRGTELQHLLHAVVPGPWQEDVADAEECAGRCGPLMDCRAFHYNVSSHGCQLLPWTQHSPHTRLRRSGRCDLFQKKDYVRTCIMNNGVGYRGTMATTVGGLPCQAWSHKFPNDHKYTPTLRNGLEENFCRNPDGDPGGPWCYTTDPAVRFQSCGIKSCREAACVWCNGEEYRGAVDRTESGRECQRWDLQHPHQHPFEPGKFLDQGLDDNYCRNPDGSERPWCYTTDPQIEREFCDLPRCGSEAQPRQEATTVSCFRGKGEGYRGTANTTTAGVPCQRWDAQIPHQHRFTPEKYACKDLRENFCRNPDGSEAPWCFTLRPGMRAAFCYQIRRCTDDVRPQDCYHGAGEQYRGTVSKTRKGVQCQRWSAETPHKPQFTFTSEPHAQLEENFCRNPDGDSHGPWCYTMDPRTPFDYCALRRCADDQPPSILDPPDQVQFEKCGKRVDRLDQRRSKLR
chain 2: VVGGHPGNSPWTVSLRNRQGQHFCGGSLVKEQWILTARQCFSSCHMPLTGYEVWLGTLFQNPQHGEPSLQRVPVAKMVCGPSGSQLVLLKLERSVTLNQRVALICLPPEWYVVPPGTKCEIAGWGETKGTGNDTVLNVALLNVISNQECNIKHRGRVRESEMCTEGLLAPVGACEGDYGGPLACFTHNAWVLEGIIIPNRVCARSCWPAVFTRVSVFVDWIHKVMRLG
notes: MSP alpha-chain of human macrophage stimulating protein: from Q19 of the pro-MSP construct to R483 (cleavage between R483 and V484); disulfide-linked to the beta-chain; Made as single-chain pro-MSP (Q19-G711; C672A; C-terminal 6-His) and cleaved by sHepsin; For the radioligand assay part of the protein was iodinated with 125I (Iodogen); source: CHO cells, transiently transfected, secreted; …
For B2, the Kd [1] was 25.7 nM, the Kd [2] was 13 nM and the EC50 [3] was 0.2 nM.

B3: MSP β 689R (V484-G711; C588S, C672A) (domain or fragment, human, UniProt P26927 484-711, looked up)
chain: VVGGHPGNSPWTVSLRNRQGQHFCGGSLVKEQWILTARQCFSSCHMPLTGYEVWLGTLFQNPQHGEPSLQRVPVAKMVCGPSGSQLVLLKLERSVTLNQRVALISLPPEWYVVPPGTKCEIAGWGETKGTGNDTVLNVALLNVISNQECNIKHRGRVRESEMCTEGLLAPVGACEGDYGGPLACFTHNAWVLEGIIIPNRVCARSRWPAVFTRVSVFVDWIHKVMRLG
notes: source: CHO cells, transiently transfected, secreted; purified (Ni-NTA, SEC); not shown: His6, C-terminal, kept
B3 showed an EC50 [3] of 0.05 nM, a Kd [4] of 6.6 nM and a koff [4] of 0.0184 s⁻¹. The kon [4] was 2.71e+06 M⁻¹ s⁻¹, the Kd [5] was 7.5 nM and the koff [5] was 0.0035 s⁻¹. It also gave a kon [5] of 470000 M⁻¹ s⁻¹, a Kd [6] of 9.6 nM and a koff [6] of 0.0175 s⁻¹. The kon [6] was 1.81e+06 M⁻¹ s⁻¹.

B4: MSP β 672C 689C (V484-G711; C588S, without C672A; 689C) (domain or fragment, human, UniProt P26927 484-711, looked up)
chain: VVGGHPGNSPWTVSLRNRQGQHFCGGSLVKEQWILTARQCFSSCHMPLTGYEVWLGTLFQNPQHGEPSLQRVPVAKMVCGPSGSQLVLLKLERSVTLNQRVALISLPPEWYVVPPGTKCEIAGWGETKGTGNDTVLNVALLNVISNQECNIKHRGRVRESEMCTEGLLAPVGACEGDYGGPLACFTHNCWVLEGIIIPNRVCARSCWPAVFTRVSVFVDWIHKVMRLG
notes: source: CHO cells, transiently transfected, secreted; purified (Ni-NTA, SEC)
B4 showed a Kd [6] of 9.7 nM, a koff [6] of 0.0075 s⁻¹ and a kon [6] of 770000 M⁻¹ s⁻¹.

B5: MSP β 672C 689R (V484-G711; C588S, without C672A) (domain or fragment, human, UniProt P26927 484-711, looked up)
chain: VVGGHPGNSPWTVSLRNRQGQHFCGGSLVKEQWILTARQCFSSCHMPLTGYEVWLGTLFQNPQHGEPSLQRVPVAKMVCGPSGSQLVLLKLERSVTLNQRVALISLPPEWYVVPPGTKCEIAGWGETKGTGNDTVLNVALLNVISNQECNIKHRGRVRESEMCTEGLLAPVGACEGDYGGPLACFTHNCWVLEGIIIPNRVCARSRWPAVFTRVSVFVDWIHKVMRLG
notes: as for B4
For B5, the Kd [6] was 6.3 nM, the koff [6] was 0.0066 s⁻¹ and the kon [6] was 860000 M⁻¹ s⁻¹.

B6: MSP β 689C (V484-G711; C588S, C672A; 689C) (domain or fragment, human, UniProt P26927 484-711, looked up)
chain: VVGGHPGNSPWTVSLRNRQGQHFCGGSLVKEQWILTARQCFSSCHMPLTGYEVWLGTLFQNPQHGEPSLQRVPVAKMVCGPSGSQLVLLKLERSVTLNQRVALISLPPEWYVVPPGTKCEIAGWGETKGTGNDTVLNVALLNVISNQECNIKHRGRVRESEMCTEGLLAPVGACEGDYGGPLACFTHNAWVLEGIIIPNRVCARSCWPAVFTRVSVFVDWIHKVMRLG
notes: as for B3
B6 gave an EC50 [3] of 0.1 nM, a Kd [4] of 9.1 nM and a koff [4] of 0.0134 s⁻¹. The kon [4] was 1.46e+06 M⁻¹ s⁻¹, the Kd [5] was 9.1 nM and the koff [5] was 0.0093 s⁻¹. It also gave a kon [5] of 1.05e+06 M⁻¹ s⁻¹, a Kd [6] of 9 nM and a koff [6] of 0.0419 s⁻¹. The kon [6] was 4.42e+06 M⁻¹ s⁻¹.
